Consider 8 sequences from the DeepSol protein solubility set.

This series can be described thus: soluble on expression in E. coli; label from the status in PepcDB or PDB records.
With “MPKASQETKGLGSYDPKSATEKKFVITHRIKNISTLNIGNTYTSDVEDHFGFLWHLSYIYDGRFLRTTLNIDVNGRSALWSVGMKVRHMFVTKNGADHFHNSTDHVFSQEHNYGLTAITFFEDIKNKIFDDDMVYVDVEVTITKTSGFDRKKLRNFDTPENDWHVVLVAGGQKFYARTVVICNPNTDICELDVARGTEIVLENEDPLDLQIFLEALHGEDVISDTTLEIILLLAIKYRAIEIFSKCEKWLLEGSKMSPRKQLQMAIRCSFWELEQKCLSELKTKQDIQAVLPANLMSLDPNMVLTLFEKLLTVT”, the “soluble on expression in E. coli” value is recorded as “soluble”.

“GPGSWIVSRGLNYSDPMNSVVARWVQHSRVRRLTTPISCFGLFIFTATCMQLPYDFRLLREASAGIDRQTALLKKSMDERYLAYREGKIAKEQLEAKEAEAFAKSMKVQ”: the “soluble on expression in E. coli” value is “soluble”.

As for “GSHHHHHHGSHMDEKLLKTIAESKYLVALTGAGVSAESGIPTFRGKDGLWNRYRPEELANPQAFAKDPEKVWKWYAWRMEKVFNAQPNKAHQAFAELERLGVLKCLITQNVDDLHERAGSRNVIHLHGSLRVVRCTSCNNSFEVESAPKIPPLPKCDKCGSLLRPGVVWFGEMLPPDVLDRAMREVERADVIIVAGTSAVVQPAASLPLIVKQRGGAIIEINPDETPLTPIADYSLRGKAGEVMDELVRHVRKALS”, the “soluble on expression in E. coli” value is “soluble”.

As to “MSLRILIVDDEKLTRDGLIANINWKALSFDQIDQADDGINAIQIALKHPPNVLLTDVRMPRMDGIELVDNILKLYPDCSVIFMSGYSDKEYLKAAIKFRAIRYVEKPIDPSEIMDALKQSIQTVLQHQAQQDSEGHHHHHH”, the “soluble on expression in E. coli” value was “soluble”.

As to “MFMIKVITPETNHPKEGGILSALVSIYNCTIHIRKPRFTADQYKKYLHDHNQLLSHFVLHEHHSLAKEFPVMGVHLKELDRINPAQVHPDIKIISTSIHSIADAGNLSHPFEYIFYSPLFQSISKENYGTNNSLADLKKTVSELKEQTGIPIIGLGGIYEANIDLVKKSGFDGAALLGAVWVQSDPLAAFGRIASMILEHHHHHH”, the “soluble on expression in E. coli” value is on record as “not soluble”.

With “GSGPTYCWNEANNPGGPNRCSNNKQCDGARTCSSSGFCQGTSRKPDPGPKGPTYCWDEAKNPGGPNRCSNSKQCDGARTCSSSGFCQGTAGHAAA”, the “soluble on expression in E. coli” value is “soluble”.

For “MSNPEQHIQDLALEEVMGDRFGRYSKYIIQERALPDVRDGLKPVQRRILFAMNVEGNTAEKGFRKSAKTVGNVIGNYHPHGDSSVYEAMVRMSQDWKVRNMLIEMHGNNGSVDGDPPAAMRYTEARLSPISAELLRDIEKETVDFIPNFDDTSSEPTVLPARFPNLLVNGSTGISAGYATDIPPHNLTEIIEAVIKRLDNPLCTTDDIMKIVKGPDFPTGGIIQGIDGIRKAYQTGKGRVVVRSKTEIEDIRGGRKQITIHEIPYEVNKANLVKRMDELRIEKKIEGISEVRDETDRTGLRIAVELKKDANAEGVLNYLFKNTDLQVSYNFNMVAINKKRPELMGIIPMLDAYIEHQKEIITKRSEYDIRKARARQHILEGLIKALSILDEVIKLIRGSKDKRDAKLNLQTKYDFSEKQAEAIVSLQLYRLTNTDIHELQSEAKSLAEQISVLEKILGDEAELIAVLKEELAEIKKKYKTARRTEVQAEIAEIKIDTEVLVANEDVIVSVTKEGYVKRTSQRSYAASNGAELAMKEADHAIFIQKMNSLDSLLLFTSKGNFIYRPVHELPDIRWKNLGDHVSHLASDLSAGEEIRSAIAIQAFTEEKRFLFVTKNGMTKQSAITNYKPQRYSKSMMAIKLKGDDELLSVHLIDGTEDIFLATKNGYGLRYSITEIPESGARTAGVKAINLKQDDIVIGGIVLMPNEQKHILLATQRGSLKQMKASEFEPISRAKRGLLMLRELKSNPHRFIGITLADNNDHLFIETNTDQIVEIDVANLRITDRYSNGSFVLDETMEGEPTSIWLAIPEIKDTSDAKEE”, the “soluble on expression in E. coli” value is reported as “not soluble”.

On to “MRIGLFTDTYFPQVSGVATSIRTLKEELEKEGHEVYIFTTTDRDVKRFEDPTIIRLPSVPFVSFTDRRVVYRGLISSYKIAKHYNLDIIHTQTEFSLGLLGKMIGKALRIPVVHTYHTQYEDYVSYIANGKIIRPSMVKPLLRGYLKDLDGVICPSRIVLNLLEGYEVTIPKRVIPTGIPLEKYIRDDITAEEVTNLKAELGIAGDETMLLSLSRISYEKNIQAIINQMPAILAENAKIKLIIVGNGPYLQDLKHLAMQLEVDKHVTFTGMVPHDKVALYYKACDFFISASTSETQGLTYIESLASGTPIIAHGNPYLDDVVTDKMFGTLYYAETDLTDAIIDAILKTPVMDKRLLAKKRYEISAQHFGKSIYTFYLDTLIARNSKEAQKLSLYLNHSGKSSSLKLVQGAIHLPKRAAKVTAITSVKVVKAPIKLVHAIKDFLD”, for which the “soluble on expression in E. coli” value is recorded as “not soluble”.
